Kd data for four molecules are collected here from paper PMC8809517, “Cofactor-independent RNA editing by a synthetic S-type PPR protein”.

Holding throughout (test): high-throughput RNA pulldown from lysate on Ni-NTA beads; HRP: 50 mM Tris pH 8, 150 mM NaCl, 1 mM beta-mercaptoethanol, 50 ug/ml BSA, 3 ug/ml yeast RNA, 0.5% heparin; ITC and FP: Tris pH 8, 200 mM KCl, 5% glycerol; MST: 50 mM Tris pH 8, 200 mM NaCl, 1 mM DTT, BSA, heparin, 0.05% Tween 20
Settings in all cases: tags: N-terminal His-eGFP

Data set [1] deals with T1, GFP-9S library array, motif 4 ND N98S;D124W (synthetic construct, N98S;D124W).
T1 chain: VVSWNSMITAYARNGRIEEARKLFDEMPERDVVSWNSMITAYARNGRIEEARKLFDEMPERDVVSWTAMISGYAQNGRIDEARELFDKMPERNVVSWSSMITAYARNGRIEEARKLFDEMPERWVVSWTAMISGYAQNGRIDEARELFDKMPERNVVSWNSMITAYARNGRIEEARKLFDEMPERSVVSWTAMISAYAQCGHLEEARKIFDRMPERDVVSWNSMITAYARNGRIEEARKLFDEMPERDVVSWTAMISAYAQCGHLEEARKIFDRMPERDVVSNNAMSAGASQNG

The target in data set [2] is T2, GFP-9S library array, motif 4 ND N98S;D124K (synthetic construct, N98S;D124K).
T2 chain: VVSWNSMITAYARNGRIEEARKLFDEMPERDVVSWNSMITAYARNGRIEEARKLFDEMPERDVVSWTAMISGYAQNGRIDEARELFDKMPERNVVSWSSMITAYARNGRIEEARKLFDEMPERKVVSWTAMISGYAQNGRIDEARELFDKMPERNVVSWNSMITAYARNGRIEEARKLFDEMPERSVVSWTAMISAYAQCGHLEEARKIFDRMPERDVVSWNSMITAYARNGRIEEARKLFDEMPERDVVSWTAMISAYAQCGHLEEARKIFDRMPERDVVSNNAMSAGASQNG

The target of data set [3] is T3, GFP-9S library array, motif 4 ND N98W;D124P (synthetic construct, N98W;D124P).
T3 chain: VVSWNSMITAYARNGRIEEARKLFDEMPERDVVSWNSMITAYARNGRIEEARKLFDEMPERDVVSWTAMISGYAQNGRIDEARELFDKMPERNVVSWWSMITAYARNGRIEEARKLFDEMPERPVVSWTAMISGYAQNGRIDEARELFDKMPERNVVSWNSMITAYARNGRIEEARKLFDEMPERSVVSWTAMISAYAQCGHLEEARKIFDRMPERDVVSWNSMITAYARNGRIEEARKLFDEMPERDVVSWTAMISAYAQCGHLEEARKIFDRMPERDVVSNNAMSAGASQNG

The target in data set [4] is T4, GFP-9S library array, motif 4 ND N98R;D124P (synthetic construct, N98R;D124P).
T4 chain: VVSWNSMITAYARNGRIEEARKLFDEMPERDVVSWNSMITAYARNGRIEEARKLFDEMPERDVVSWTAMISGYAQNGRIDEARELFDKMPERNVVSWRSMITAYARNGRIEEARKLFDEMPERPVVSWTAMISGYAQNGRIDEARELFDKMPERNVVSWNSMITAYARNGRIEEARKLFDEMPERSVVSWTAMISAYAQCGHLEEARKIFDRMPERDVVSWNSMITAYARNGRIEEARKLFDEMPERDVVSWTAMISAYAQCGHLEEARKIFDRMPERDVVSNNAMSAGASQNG

Data set [5] has as its target T5, GFP-9S library array, motif 4 ND N98I;D124L (synthetic construct, N98I;D124L).
T5 chain: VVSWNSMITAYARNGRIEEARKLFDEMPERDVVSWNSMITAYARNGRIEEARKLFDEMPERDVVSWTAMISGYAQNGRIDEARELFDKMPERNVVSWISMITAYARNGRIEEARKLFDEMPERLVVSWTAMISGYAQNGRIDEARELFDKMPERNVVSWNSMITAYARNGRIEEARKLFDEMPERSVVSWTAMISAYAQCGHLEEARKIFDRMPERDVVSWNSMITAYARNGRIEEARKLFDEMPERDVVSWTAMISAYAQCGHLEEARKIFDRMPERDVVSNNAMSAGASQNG

B1: Cy5-rpoA-G (ssRNA)
RNA: AUUAGACGUGA
B1: the Kd in data set [1] (label: 5' Cy5) was found to be 126 nM; in data set [2] (label: 5' Cy5), 104 nM; in data set [3] (label: 5' Cy5), 215 nM; in data set [4] (label: 5' Cy5) it was 151 nM; in data set [5] (label: 5' Cy5), 128 nM.

B2: Cy5-rpoA (ssRNA)
RNA: AUUACACGUGA
Regarding B2, the Kd in data set [1] (label: 5' Cy5) was 90.7 nM; in data set [2] (label: 5' Cy5) it was 86.7 nM; in data set [3] (label: 5' Cy5) it was 230 nM; in data set [4] (label: 5' Cy5), 143 nM; in data set [5] (label: 5' Cy5), 106 nM.

B3: IR-rpoA-A (ssRNA)
RNA: AUUAAACGUGA
As to B3, the Kd in data set [1] (label: 5' IRDye 800CW) amounted to 218 nM; in data set [2] (label: 5' IRDye 800CW), 134 nM; in data set [3] (label: 5' IRDye 800CW) it was 579 nM; in data set [4] (label: 5' IRDye 800CW), 335 nM; in data set [5] (label: 5' IRDye 800CW), 343 nM.

B4: IR-rpoA-U (ssRNA)
RNA: AUUAUACGUGA
Consider B4, for which the Kd is 156 nM in data set [1] (label: 5' IRDye 800CW); 105 nM in data set [2] (label: 5' IRDye 800CW); 526 nM in data set [3] (label: 5' IRDye 800CW); 163 nM in data set [4] (label: 5' IRDye 800CW); 202 nM in data set [5] (label: 5' IRDye 800CW).
